From publication PMC5262380, “Structural insights into the mechanism of the DEAH-box RNA helicase Prp43” (eLife, 2017) come the findings set out here.

In experiment [1] the target is ctPrp43 (DEAH-box RNA helicase Prp43 from Chaetomium thermophilum), wild type (C. thermophilum) (UniProt G0RY84).
Experiment [2] has the same target. This is another data set of the same source.
The target in experiment [3] is ctPrp43(F181C, N623C) (C. thermophilum).
The target of experiment [4] is ctPrp43(R180G, F181G) (C. thermophilum).
Experiment [5] addresses ctPrp43(R180G, F181G, Y348G, T350G) (C. thermophilum).
Experiment [6] deals with ctPrp43(Y348G, T350G) (C. thermophilum).

For “ctPfa1(662-742), truncated G-patch construct of the C. thermophilum Pfa1 homolog (domain or fragment)”, in experiment [1], the helicase activity (maximal unwinding velocity of a dsRNA with 3' overhang; 250 nM ctPrp43, 1.25 uM G-patch; ctPrp43 alone 0.54 nM/min) is 60 nM/min. Moreover, the ATPase activity kcat with five-fold excess of G-patch, no RNA (ctPrp43 alone 1.81 min^-1) in experiment [2] was determined as 0.605 s⁻¹. For the same substance, in experiment [3], the ATPase activity kcat with five-fold excess of G-patch, no RNA (ctPrp43-IDSB alone 5.04 min^-1) turned out to be 3.32 s⁻¹. Moreover, the ATPase activity kcat with five-fold excess of G-patch, no RNA (ctPrp43-HT alone 13.21 min^-1) in experiment [4] amounted to 1.02 s⁻¹. In experiment [5], this substance returned an ATPase activity kcat with five-fold excess of G-patch, no RNA (ctPrp43-HT&HL alone 7.61 min^-1) of 1.89 s⁻¹. The substance further displayed an ATPase activity kcat with five-fold excess of G-patch, no RNA (ctPrp43-HL alone 6.19 min^-1) in experiment [6] of 1.44 s⁻¹.

Turning to “ctNtr1(242-305), truncated G-patch construct of the C. thermophilum Ntr1 homolog (domain or fragment)”, the helicase activity (maximal unwinding velocity of a dsRNA with 3' overhang; 250 nM ctPrp43, 1.25 uM G-patch; ctPrp43 alone 0.54 nM/min) in experiment [1] was found to be 1.98 nM/min. Besides, in experiment [2], the ATPase activity kcat with five-fold excess of G-patch, no RNA (ctPrp43 alone 1.81 min^-1) stood at 0.0693 s⁻¹.
